We go through five substances from PMC12723161.

The target of test [1] is Chlamydomonas reinhardtii animal-like cryptochrome (CraCRY), wild type (Chlamydomonas reinhardtii). Description: SEC; dimer peak collected from SEC, kept in the dark, second round of SEC.
Test [2] has the same target. Description: SEC; concentration series, blue light 4 min; HEPES pH 7.4, 150 mM NaCl; Superdex 200 Increase 10/300, room temperature, in darkness; dimer fraction from peak areas. Background: SEC sorts molecules by how far they enter the pores of the column.
Test [3] concerns the target GST-fused ROC15 (GARP), the active domain of Rhythm Of Clock 15. Description: GST pull-down, SDS-PAGE band intensity ratio. Particulars: absence of reducing agents, read off a plot.
The target in test [4] is CraCRY Y373E (Chlamydomonas reinhardtii). Description: SEC; time-lapse dimerization under blue light (450 nm, 100 W/m^2); 6 mg/mL in HEPES pH 7.4, 150 mM NaCl; Superdex 200 Increase 10/300, room temperature, in darkness; dimer fraction from peak areas.
Test [5] addresses CraCRY Y373R (Chlamydomonas reinhardtii). Described as above.
Setting [6] is: lit (blue light), parent: est. 0.15.

What is called stoichiometry N is the number of molecules, sites or subunits per partner or assembly. For “Chlamydomonas reinhardtii animal-like cryptochrome (CraCRY), wild type (natural protein)”, in test [1], the stoichiometry N is 2. The substance also displayed a dimer fraction (percent of elution peak area) in test [2] of 20%.
Regarding “Chlamydomonas reinhardtii animal-like cryptochrome (CraCRY), wild type Y373W; N395C”, the response in test [3] (dark, parent: est. 0.03) stood at 0.05; in test [3] (setting [6]) it was 0.58.
The corresponding values for “Chlamydomonas reinhardtii animal-like cryptochrome (CraCRY), wild type Y373W” are 0.045 and 0.85.
CraCRY Y373E (natural protein) yielded a dimer fraction (percent of elution peak area) in test [4] of 50%.
In test [5], CraCRY Y373R (natural protein) registered a dimer fraction (percent of elution peak area) of 50%.
